Reference: patent publication US20170081386A1 (APOGENIX, published 2017)
Blank lines part the entries; values can stand above or below the binder they belong to.

Assays:
[1] = target: T1, TRAIL-Receptor 1-Fc (R&D Systems) (UniProt O00220 24-239, limits assumed); test: Streptactin-ELISA (FIG. 14A), supernatant immobilized, constant concentration of TRAIL-Receptor 1-Fc
T1 construct: Bought reagent; also called Fc-fusion protein of TRAIL-Receptor 1; not shown: Fc part of the bought fusion
T1 sequence (looked up): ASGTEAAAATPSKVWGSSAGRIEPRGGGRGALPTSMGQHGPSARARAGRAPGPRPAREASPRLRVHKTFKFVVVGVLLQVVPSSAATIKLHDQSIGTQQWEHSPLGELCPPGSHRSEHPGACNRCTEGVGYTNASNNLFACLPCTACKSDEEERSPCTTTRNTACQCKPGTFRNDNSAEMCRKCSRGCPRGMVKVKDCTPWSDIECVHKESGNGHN
Procedure: (§1) To determine the binding of receptors to constructed ligands, streptactin-coated 96-well microplates were used. Therefore, supernatants from transiently transfected HEK293 cells, mouse sera or purified proteins were immobilized on streptactin-plates (IBA GmbH) for 1-3 hours in PBS. Samples were diluted in ELISA binding/blocking buffer (PBS, 0.1% Tween-20, 20% SuperBlock T20-PBS (Pierce)). Plates were washed with PBS+0.1% Tween-20 and incubated with mouse-anti-TRAIL antibody (Pharmingen, clone RIK-2), TRAIL-Receptor 1-Fc (R&D Systems), TRAIL-Receptor 2-Fc (R&D Systems), TACl-Fc (R&D Systems) or HVEM-Fc (R&D Systems) for one hour at room temperature. Plates were again washed and Fc-proteins were detected with anti-human- or anti-mouse-Fc-specific peroxidase-conjugated antibodies (Sigma). Colour reaction was done by addition of 100 μl per well of TMB substrate (Kem-En-Tec Diagnostics) and the absorbance at 450 nm and 630 nm was determined with an ELISA reader after addition of 25 μl of 25% H₂SO₄ as stop-solution. Values were calculated as 450 nm-630 nm with MS Excel.
The selectivity of TRAIL-Receptor 1 or TRAIL-Receptor 2 towards fusion proteins of SPD/ccSPD and TRAIL, TRAILR1mut and TRAILR2mut was shown by Streptactin-ELISA. Therefore, TRAIL-SPD-fusion proteins in supernatants from transiently transfected HEK293 cells were immobilized on Streptactin coated microplates. Cell supernatant from untransfected cells served as negative control. Specifically bound proteins were detected with constant (A, B) or varying (C, D) concentrations of either TRAIL-Receptor 1-Fc or TRAIL-Receptor 2-Fc. As shown in (A), the ligand TRAILR1mut fused to SPD variants is deteced by TRAIL-Receptor 1, whereas the ligand TRAILR2mut is not. As shown in (B), the ligand TRAILR2mut is preferentially detected by TRAIL-Receptor 2, whereas TRAILR1mut-and TRAIL wild-type constructs are equally well detected. As shown in C, TRAIL-Receptor 1-Fc bound to TRAIL-R1 mut-ASPD and TRAIL-ASPD equally well over the whole receptor titration range, whereas TRAIL-R2mut-ASPD is not detected. As shown in D, TRAIL-Receptor 2-Fc bound to TRAIL-R2mut-ASPD and TRAIL-ASPD equally well over the receptor titration range analyzed, whereas the signal for TRAIL-R1mut-ASPD decreased rapidely with decreasing concentrations of receptor.

[2] = target: T1, TRAIL-Receptor 1-Fc (R&D Systems); test: Streptactin-ELISA, purified trimeric ligand immobilized via Strep-tag II, receptor-Fc detection
Procedure: as §1
Varying concentrations (0-10 microgram/ml) of affinity and SEC purified, trimeric LIGHT-ASPD were used for immobilized via the Strep-tag II on Streptactin-coated microplates. LIGHT-ASPD was then detected in a ELISA set-up using 100 ng/ml of Fc-fusion proteins of the receptors HVEM and TRAIL-Receptor 1, respectively. […]

B1: TRAILR2mut-D-SPD (ligand)
chain: QRVAAHITGTRGRSNTLSSPNSKNEKALGRKINSWESSRSGHSFLSNLHLRNGELVIHEKGFYYIYSQTQFKFREEIKENTKNDKQMVQYIYKYTSYPDPILLMKSARNSCWSKDAEYGLYSIYQGGIFELKENDRIFVSVTNERLLQMDHEASFFGAFLVGSGLPDVASLRQQVEALQGQVQHLQAAFSQYKKVELFPNGQSVGEKIFKTAGFVKPFTEAQLLCTQAGGQLASPRSAAENAALQQLVVAKNEAAFLSMTDSKTEGKFTYPTGESLVYSNWAPGEPNDDGGSEDCVEIFTNGKWNDRACGEKRLVVCEFGGSPSSSSSSAWSHPQFEK
notes: it is assembled from the construct description; also called TRAILR2mut (member of the SPD variants)
binding result [1]: no binding

B2: LIGHT-ASPD (ligand)
chain: EVNPAAHLTGANSSLTGSGGPLLWETQLGLAFLRGLSYHDGALVVTKAGYYYIYSKVQLGGVGCPLGLASTITHGLYKRTPRYPEELELLVSQQSPCGRATSSSRVWWDSSFLGGVVHLEAGEEVVVRVLDERLVRLRDGTRSYFGAFMVGSSGSSGSSGSGLPDVASLRQQVEALQGQVQHLQAAFSQYKKVELFPNGQSVGEKIFKTAGFVKPFTEAQLLCTQAGGQLASPRSAAENAALQQLVVAKNEAAFLSMTDSKTEGKFTYPTGESLVYSNWAPGEPNDDGGSEDCVEIFTNGKWNDRACGEKRLVVCEFGGSPSSSSSSAWSHPQFEK
notes: also called Sp-LIGHT-ASPD; LIGHT fusion protein
binding result [2]: no binding

B3: TRAILR2mut-D-CCSPD (ligand)
chain: QRVAAHITGTRGRSNTLSSPNSKNEKALGRKINSWESSRSGHSFLSNLHLRNGELVIHEKGFYYIYSQTQFKFREEIKENTKNDKQMVQYIYKYTSYPDPILLMKSARNSCWSKDAEYGLYSIYQGGIFELKENDRIFVSVTNERLLQMDHEASFFGAFLVGSGLPDVASLRQQVEALQGQVQHLQAAFSQYKKVELFPNGPSSSSSSAWSHPQFEK
notes: as for B1
binding result [1]: no binding

Results, then the binder that gave them:

binding result [1]: no binding
B4: TRAILR2mut-ASPD (ligand)
chain: QRVAAHITGTRGRSNTLSSPNSKNEKALGRKINSWESSRSGHSFLSNLHLRNGELVIHEKGFYYIYSQTQFKFREEIKENTKNDKQMVQYIYKYTSYPDPILLMKSARNSCWSKDAEYGLYSIYQGGIFELKENDRIFVSVTNERLLQMDHEASFFGAFLVGSSGSSGSSGSGLPDVASLRQQVEALQGQVQHLQAAFSQYKKVELFPNGQSVGEKIFKTAGFVKPFTEAQLLCTQAGGQLASPRSAAENAALQQLVVAKNEAAFLSMTDSKTEGKFTYPTGESLVYSNWAPGEPNDDGGSEDCVEIFTNGKWNDRACGEKRLVVCEFGGSPSSSSSSAWSHPQFEK
notes: TRAIL-Receptor 2 selective mutein; homotrimer by SEC; also called Sp-TRAILR2mut-ASPD

binding result [1]: no binding
B5: TRAILR2mut-A-CCSPD (ligand)
chain: QRVAAHITGTRGRSNTLSSPNSKNEKALGRKINSWESSRSGHSFLSNLHLRNGELVIHEKGFYYIYSQTQFKFREEIKENTKNDKQMVQYIYKYTSYPDPILLMKSARNSCWSKDAEYGLYSIYQGGIFELKENDRIFVSVTNERLLQMDHEASFFGAFLVGSSGSSGSSGSGLPDVASLRQQVEALQGQVQHLQAAFSQYKKVELFPNGPSSSSSSAWSHPQFEK
notes: as for B1
